{
  "source": "patent US20020002277A1",
  "about": "“Inhibitors of platelet activation and recruitment” (priority 1998, published 2002)",
  "molecules": {"B1": {"name": "chicken ovalbumin conjugated to Affigel beads (other, UniProt P01012 2-386, looked up)", "chain": "GSIGAASMEFCFDVFKELKVHHANENIFYCPIAIMSALAMVYLGAKDSTRTQINKVVRFDKLPGFGDSIEAQCGTSVNVHSSLRDILNQITKPNDVYSFSLASRLYAEERYPILPEYLQCVKELYRGGLEPINFQTAADQARELINSWVESQTNGIIRNVLQPSSVDSQTAMVLVNAIVFKGLWEKAFKDEDTQAMPFRVTEQESKPVQMMYQIGLFRVASMASEKMKILELPFASGTMSMLVLLPDEVSGLEQLESIINFEKLTEWTSSNVMEERKIKVYLPRMKMEEKYNLTSVLMAMGITDVFSSSANLSGISSAESLKISQAVHAAHAEINEAGREVVGSAEAGVDAASVSEEFRADHPFLFCIKHIATNAVLFFGRCVSP", "notes": "Control beads; also called ovalbumin-conjugated AG; ovalbumin-conjugated beads"}, "B2": {"name": "E174A mutant: CD39 mutant, Glutamate 174 replaced with alanine (protein, UniProt P49961 1-510, looked up, variant E174A)", "Ectonucleoside triphosphate …": "MEDTKESNVKTFCSKNILAILGFSSIIAVIALLAVGLTQNKALPENVKYGIVLDAGSSHTSLYIYKWPAEKENDTGVVHQVEECRVKGPGISKFVQKVNEIGIYLTDCMERAREVIPRSQHQETPVYLGATAGMRLLRMESEELADRVLDVVERSLSNYPFDFQGARIITGQEAGAYGWITINYLLGKFSQKTRWFSIVPYETNNQETFGALDLGGASTQVTFVPQNQTIESPDNALQFRLYGKDYNVYTHSFLCYGKDQALWQKLAKDIQVASNEILRDPCFHPGYKKVVNVSDLYKTPCTKRFEMTLPFQQFEIQGIGNYQQCHQSILELFNTSYCPYSQCAFNGIFLPPLQGDFGAFSAFYFVMKFLNLTSEKVSQEKVTEMMKKFCAQPWEEIKTSYAGVKEKYLSEYCFSGTYILSLLLQGYHFTADSWEHIHFIGKIQGSDAGWTLGYMLNLTNMIPAEQPLSTPLSHSTYVFLMVLFSLVLFTVAIIGLLIFHKPSYFWKDMV"}, "B3": {"name": "pIL2LFlagSolCD39: N-terminally FLAG-tagged solCD39 with human proinsulin/IL2 leader and 12 mature IL2 residues (SEQ ID NO:25); COS-1 CM (protein)", "chain": "MALWIDRMQLLSCIALSLALVTNSAPTSSSTKKTQLTSSGDYKDDDDKTQNKALPENVKYGIVLDAGSSHTSLYIYKWPAEKENDTGVVHQVEECRVKGPGISKFVQKVNEIGIYLTDCMERAREVIPRSQHQETPVYLGATAGMRLLRMESEELADRVLDVVERSLSNYPFDFQGARIITGQEEGAYGWITINYLLGKFSQKTRWFSIVPYETNNQETFGALDLGGASTQVTFVPQNQTIESPDNALQFRLYGKDYNVYTHSFLCYGKDQALWQKLAKDIQVASNEILRDPCFHPGYKKVVNVSDLYKTPCTKRFEMTLPFQQFEIQGIGNYQQCHQSILELFNTSYCPYSQCAFNGIFLPPLQGDFGAFSAFYFVMKFLNLTSEKVSQEKVTEMMKKFCAQPWEEIKTSYAGVKEKYLSEYCFSGTYILSLLLQGYHFTADSWEHIHFIGKIQGSDAGWTLGYMLNLTNMIPAEQPLSTPLSHST", "modifications": "CDS (1)..(1461)", "notes": "COS-1 CM"}},
  "key": {"[1]": {"target": "T1, N-terminally FLAG-tagged soluble human CD39 secreted from COS-1 cells transfected with pIL2LFlagSolCD39 (human, UniProt P49961 38-476)", "T1 construct": "The cleavage site of the leader was not determined for the FLAG-tagged form; In conditioned medium, about 66 kD, glycosylated; also called pIL2LFlagSolCD39 product; tagged soluble CD39", "T1 sequence": "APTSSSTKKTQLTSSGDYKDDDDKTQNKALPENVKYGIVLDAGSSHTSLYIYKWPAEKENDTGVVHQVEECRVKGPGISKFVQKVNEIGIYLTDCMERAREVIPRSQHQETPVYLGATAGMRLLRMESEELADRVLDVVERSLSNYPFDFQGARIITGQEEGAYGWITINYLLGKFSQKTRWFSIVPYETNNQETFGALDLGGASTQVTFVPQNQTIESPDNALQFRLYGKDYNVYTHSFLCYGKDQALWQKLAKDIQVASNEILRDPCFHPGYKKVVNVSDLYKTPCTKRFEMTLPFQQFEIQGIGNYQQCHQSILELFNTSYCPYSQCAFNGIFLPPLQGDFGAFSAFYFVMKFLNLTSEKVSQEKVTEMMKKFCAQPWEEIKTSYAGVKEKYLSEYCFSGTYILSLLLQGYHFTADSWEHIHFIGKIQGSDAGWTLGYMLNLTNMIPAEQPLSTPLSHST", "test": "immunoaffinity depletion of COS-1 conditioned medium with conjugated Affigel beads, ATPase activity left in the supernatant", "method": "CM was collected from COS-1 cells transfected with pIL2LFlagSolCD39, which had been cultured for 5 days in DMEM/F12 supplemented with 5% FCS. A 100 μl aliquot of drained Affigel beads (AG) conjugated with either chicken ovalbumin, antiFLAG mAb, or anti-CD39 mAb was added per ml of CM. […] Each cycle involved continuous gentle agitation of the slurry for 14 h at 4° C. followed by centrifugation to recover supernatants for a subsequent binding cycle or for ATPDase activity measurements."}, "[2]": {"system": "platelets", "test": "Platelet aggregation in platelet-rich plasma from volunteers", "format": "cell-based, human", "conditions": "alanine replacement mutant", "description": "After obtaining informed consent from volunteers, blood was collected via plastic tubing using acid citrate-dextrose (38 mM citric acid; 75 mM sodium citrate; 135 mM glucose) as anticoagulant. Where indicated, volunteers had ingested 650 mg acetylsalicylic acid (ASA) 18 h prior to blood donation. Platelet-rich plasma (PRP) was prepared with an initial whole blood centrifugation (200 g, 15 min, 25° C.), and a second centrifugation of the PRP (90 g, 10 min) to eliminate residual erythrocytes and leukocytes. The stock suspension of PRP was maintained at room temperature under 5% CO2-air.\nTotal volumes were adjusted to 300 μl with TSG buffer (Marcus et al., J. Clin. Invest. 88:1690, 1991; Marcus et al., J. Clin. Invest. 99:1351, 1997). After the 3 min preincubation, platelet agonists (ADP or collagen) were added at the concentrations indicated, and the aggregation response recorded for 4-5 min."}, "[3]": {"test": "Enzymatic (ATPase and ADPase) activity of site-directed CD39 mutants", "format": "biochemical", "conditions": "alanine replacement in conserved apyrase regions", "method": "Mutants were assayed for enzymatic (ATPase and ADPase) and platelet inhibitory (dose-dependent inhibition of platelet aggregation) activities. For one series of mutants, residues within the conserved apyrase regions were replaced with alanine."}, "[4]": {"test": "Phosphate release assay for ATPase activity", "format": "biochemical", "conditions": "for CPM × 10^3 (net counts), ATPase activity in CM: 5 days (Table 3)", "method": "This example describes an ATPase assay that may be used to track enzyme activity. Samples (approximately 100 μl of either concentrated CM or purified polypeptide) are combined with 20 μl of 10X assay buffer (200 mM HEPES, 1.2 M NaCl, 50 mM KCl, 15 mM CaCl2, 15 mM MgCl2 and 3 mM ATP) and sterile water is added to a final volume of 200 μl. Radiolabeled ATP (0.8 μCi γ [^32P] ATP; Amersham, Arlington Heights, Ill.) is added and the mixture incubated for 20 minutes at 37° C. Stop mix (0.5 ml of 20% activated charcoal/1 M HCl) is added and the reaction is placed on ice for 10 minutes. After centrifugation (14K rpm for 10 minutes), the supernatant is assayed for free ^32P using a scintillation counter. Data are expressed as raw counts or net counts, or as picomoles of ATP degraded per minute.\nThe transfections were repeated and the CM (10, 20 and 30 μL, unconcentrated) was assayed essentially as described in Example 7. […] ATPase levels in CM from COS-1 cells transfected with pIL2LFlagSolCD39 increased with time in culture over at least 4 days post-transfection.\nTo determine whether activity was affected by removal of the N-terminal FLAG® tag, COS-1 cells were transfected with pIL2LFlagSolCD39 and pIL2LSolCD39 and supernatants (sups) were harvested after 5 days. Samples of 10, 20 and 30 μL of 1x sups were assayed for ATPase activity as described in Example 7.\nThe expression of Trim1 and Trim2 constructs was analyzed in COS-1 cells cultured in 10 cm plates. After 5 days of incubation, 1x supernatants were examined via ELISA (using anti-CD39) and the phosphate-release assay described in Example 7. […] Expression levels, however, appeared to be reduced 3-4 fold."}, "[5]": {"test": "Phosphate release assay for ATPase activity", "format": "biochemical", "conditions": "100 μL of 10-fold concentrated CM from COS-1 transfectants; 10X buffer with 30 mM cold ATP"}},
  "data": [
    {"molecule": "B1", "values": [
      {"measurement": "binding result", "setting": "[1]", "result": "no binding"}
    ]},
    {"molecule": "B2", "values": [
      {"measurement": "effect on platelet responsiveness", "setting": "[2]", "result": "no effect on platelet responsiveness"},
      {"measurement": "enzymatic activity of mutant", "setting": "[3]", "result": "completely devoid of enzymatic activity"}
    ]},
    {"molecule": "B3", "values": [
      {"measurement": "CPM × 10^3 (net counts), ATPase activity in CM", "setting": "[4]; 10 μL 1x COS-1 supernatant", "result": 23.6, "unit": "CPM × 10^3"},
      {"measurement": "CPM Release × 10^3 (net counts), ATPase activity in CM", "setting": "[4]; 10 μL unconcentrated COS-1 CM", "result": 24.71, "unit": "CPM × 10^3"},
      {"measurement": "CPM × 10^3 (net counts), ATPase activity in CM", "setting": "[4]; 20 μL 1x COS-1 supernatant", "result": 40.2, "unit": "CPM × 10^3"},
      {"measurement": "CPM Release × 10^3 (net counts), ATPase activity in CM", "setting": "[4]; 20 μL unconcentrated COS-1 CM", "result": 43.92, "unit": "CPM × 10^3"},
      {"measurement": "CPM × 10^3 (net counts), ATPase activity in CM", "setting": "[4]; 30 μL 1x COS-1 supernatant", "result": 54.4, "unit": "CPM × 10^3"},
      {"measurement": "CPM Release × 10^3 (net counts), ATPase activity in CM", "setting": "[4]; 30 μL unconcentrated COS-1 CM", "result": 56.93, "unit": "CPM × 10^3"},
      {"measurement": "CPM Release × 10^3 (raw counts), ATPase activity in concentrated CM", "setting": "[5]", "result": 99.96, "unit": "CPM × 10^3"}
    ]}
  ]
}
